Measured values from IntAct's records for PubMed 32296183.

B1: Succinate--CoA ligase [ADP-forming] subunit beta, mitochondrial (Homo sapiens), Q9P2R7 (parent)
chain: MAASMFYGRLVAVATLRNHRPRTAQRAAAQVLGSSGLFNNHGLQVQQQQQRNLSLHEYMSMELLQEAGVSVPKGYVAKSPDEAYAIAKKLGSKDVVIKAQVLAGGRGKGTFESGLKGGVKIVFSPEEAKAVSSQMIGKKLFTKQTGEKGRICNQVLVCERKYPRREYYFAITMERSFQGPVLIGSSHGGVNIEDVAAESPEAIIKEPIDIEEGIKKEQALQLAQKMGFPPNIVESAAENMVKLYSLFLKYDATMIEINPMVEDSDGAVLCMDAKINFDSNSAYRQKKIFDLQDWTQEDERDKDAAKANLNYIGLDGNIGCLVNGAGLAMATMDIIKLHGGTPANFLDVGGGATVHQVTEAFKLITSDKKVLAILVNIFGGIMRCDVIAQGIVMAVKDLEIKIPVVVRLQGTRVDDAKALIADSGLKILACDDLDEAARMVVKLSEIVTLAKQAHVDVKFQLPI
B2: Catenin alpha-3 (Homo sapiens), Q9UI47-2 (parent)
chain: MSAETPITLNIDPQDLQVQTFTVEKLLEPLIIQVTTLVNCPQNPSSRKKGRSKRASVLLASVEEATWNLLDKGEKIAQEATVLKDELTASLEEVRKESEALKVSAERFTDDPCFLPKREAVVQAARALLAAVTRLLILADMIDVMCLLQHVSAFQRTFESLKNVANKSDLQKTYQKLGKELENLDYLAFKRQQDLKSPNQRDEIAGARASLKENSPLLHSICSACLEHSDVASLKASKDTVCEEIQNALNVISNASQGIQNMTTPPEPQAATLGSALDELENLIVLNPLTVTEEEIRPSLEKRLEAIISGAALLADSSCTRDLHRERIIAECNAIRQALQDLLSEYMNNAGKKERSNTLNIALDNMCKKTRDLRRQLRKAIIDHVSDSFLDTTVPLLVLIEAAKNGREKEIKEYAAIFHEHTSRLVEVANLACSMSTNEDGIKIVKIAANHLETLCPQIINAALALAARPKSQAVKNTMEMYKRTWENHIHVLTEAVDDITSIDDFLAVSGMFLFF
partner: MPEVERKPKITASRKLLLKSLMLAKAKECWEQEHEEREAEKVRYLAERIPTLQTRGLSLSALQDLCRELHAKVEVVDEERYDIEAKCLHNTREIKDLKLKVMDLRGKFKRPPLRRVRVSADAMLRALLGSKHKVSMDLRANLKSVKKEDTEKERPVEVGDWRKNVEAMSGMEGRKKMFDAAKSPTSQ

Variants of: B1
Details: with sc23a_human SEC23A

Variant | effect of a mutation on the interaction
MAASMFYGRLVAVATLRNHRPRTAQRAAAQVLGSSGLFNNHGLQVQQQQQRNLSLHEYMSMELLQEAGVSVPKGYVAKSPDEAYAIAKKLGSKDVVIKAQVLAGGRGKGTFESGLKGGVKIVFSPEEAKAVSSQMIGKKLFTKQTGEKGRICNQVLVCERKYPRREYYFAITMERSFQGPVLIGSSHGGVNIEDVAAESPEAIIKEPIDIEEGIKKEQALQLAQKMGFPPNIVESAAENMVKLYSLFLKYNATMIEINPMVEDSDGAVLCMDAKINFDSNSAYRQKKIFDLQDWTQEDERDKDAAKANLNYIGLDGNIGCLVNGAGLAMATMDIIKLHGGTPANFLDVGGGATVHQVTEAFKLITSDKKVLAILVNIFGGIMRCDVIAQGIVMAVKDLEIKIPVVVRLQGTRVDDAKALIADSGLKILACDDLDEAARMVVKLSEIVTLAKQAHVDVKFQLPI [D251N] | disrupting interaction strength
MAASMFYGRLVAVATLRNHRPRTAQRAAAQVLGSSGLFNNHGLQVQQQQQRNLSLHEYMSMELLQEAGVSVPKGYVAKSPDEAYAIAKKLGSKDVVIKAQVLAGGRGKGTFESGLKGRVKIVFSPEEAKAVSSQMIGKKLFTKQTGEKGRICNQVLVCERKYPRREYYFAITMERSFQGPVLIGSSHGGVNIEDVAAESPEAIIKEPIDIEEGIKKEQALQLAQKMGFPPNIVESAAENMVKLYSLFLKYDATMIEINPMVEDSDGAVLCMDAKINFDSNSAYRQKKIFDLQDWTQEDERDKDAAKANLNYIGLDGNIGCLVNGAGLAMATMDIIKLHGGTPANFLDVGGGATVHQVTEAFKLITSDKKVLAILVNIFGGIMRCDVIAQGIVMAVKDLEIKIPVVVRLQGTRVDDAKALIADSGLKILACDDLDEAARMVVKLSEIVTLAKQAHVDVKFQLPI [G118R] | disrupting interaction strength

Variants of: B1
Details: with mal2_human MAL2, Q969L2
Chain of mal2_human MAL2, Q969L2 (Q969L2 whole entry): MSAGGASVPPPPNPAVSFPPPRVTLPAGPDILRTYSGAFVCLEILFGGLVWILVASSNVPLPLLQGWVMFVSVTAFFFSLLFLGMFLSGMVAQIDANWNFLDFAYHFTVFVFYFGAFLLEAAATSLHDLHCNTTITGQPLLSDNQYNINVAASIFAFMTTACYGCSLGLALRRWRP

Variant | effect of a mutation on the interaction
MAASMFYGRLVAVATLRNHRPRTAQRAAAQVLGSSGLFNNHGLQVQQQQQRNLSLHEYMSMELLQEAGVSVPKGYVAKSPDEAYAIAKKLGSKDVVIKAQVLAGGRGKGTFESGLKGGVKIVFSPEEAKAVSSQMIGKKLFTKQTGEKGRICNQVLVCERKYPRREYYFAITMERSFQGPVLIGSSHGGVNIEDVAAESPEAIIKEPIDIEEGIKKEQALQLAQKMGFPPNIVESAAENMVKLYSLFLKYNATMIEINPMVEDSDGAVLCMDAKINFDSNSAYRQKKIFDLQDWTQEDERDKDAAKANLNYIGLDGNIGCLVNGAGLAMATMDIIKLHGGTPANFLDVGGGATVHQVTEAFKLITSDKKVLAILVNIFGGIMRCDVIAQGIVMAVKDLEIKIPVVVRLQGTRVDDAKALIADSGLKILACDDLDEAARMVVKLSEIVTLAKQAHVDVKFQLPI [D251N] | disrupting interaction strength
MAASMFYGRLVAVATLRNHRPRTAQRAAAQVLGSSGLFNNHGLQVQQQQQRNLSLHEYMSMELLQEAGVSVPKGYVAKSPDEAYAIAKKLGSKDVVIKAQVLAGGRGKGTFESGLKGRVKIVFSPEEAKAVSSQMIGKKLFTKQTGEKGRICNQVLVCERKYPRREYYFAITMERSFQGPVLIGSSHGGVNIEDVAAESPEAIIKEPIDIEEGIKKEQALQLAQKMGFPPNIVESAAENMVKLYSLFLKYDATMIEINPMVEDSDGAVLCMDAKINFDSNSAYRQKKIFDLQDWTQEDERDKDAAKANLNYIGLDGNIGCLVNGAGLAMATMDIIKLHGGTPANFLDVGGGATVHQVTEAFKLITSDKKVLAILVNIFGGIMRCDVIAQGIVMAVKDLEIKIPVVVRLQGTRVDDAKALIADSGLKILACDDLDEAARMVVKLSEIVTLAKQAHVDVKFQLPI [G118R] | disrupting interaction strength

Variants of: B1
Details: with ar6p1_human ARL6IP1, Q15041
Chain of ar6p1_human ARL6IP1, Q15041 (Q15041 whole entry): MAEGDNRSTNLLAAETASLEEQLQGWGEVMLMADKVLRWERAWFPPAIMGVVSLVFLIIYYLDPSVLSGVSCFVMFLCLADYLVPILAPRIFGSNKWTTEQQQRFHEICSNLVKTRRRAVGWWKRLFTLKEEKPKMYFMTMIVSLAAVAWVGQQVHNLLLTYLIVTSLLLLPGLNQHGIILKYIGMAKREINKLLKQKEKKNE

Variant | effect of a mutation on the interaction
MAASMFYGRLVAVATLRNHRPRTAQRAAAQVLGSSGLFNNHGLQVQQQQQRNLSLHEYMSMELLQEAGVSVPKGYVAKSPDEAYAIAKKLGSKDVVIKAQVLAGGRGKGTFESGLKGGVKIVFSPEEAKAVSSQMIGKKLFTKQTGEKGRICNQVLVCERKYPRREYYFAITMERSFQGPVLIGSSHGGVNIEDVAAESPEAIIKEPIDIEEGIKKEQALQLAQKMGFPPNIVESAAENMVKLYSLFLKYNATMIEINPMVEDSDGAVLCMDAKINFDSNSAYRQKKIFDLQDWTQEDERDKDAAKANLNYIGLDGNIGCLVNGAGLAMATMDIIKLHGGTPANFLDVGGGATVHQVTEAFKLITSDKKVLAILVNIFGGIMRCDVIAQGIVMAVKDLEIKIPVVVRLQGTRVDDAKALIADSGLKILACDDLDEAARMVVKLSEIVTLAKQAHVDVKFQLPI [D251N] | disrupting interaction strength
MAASMFYGRLVAVATLRNHRPRTAQRAAAQVLGSSGLFNNHGLQVQQQQQRNLSLHEYMSMELLQEAGVSVPKGYVAKSPDEAYAIAKKLGSKDVVIKAQVLAGGRGKGTFESGLKGRVKIVFSPEEAKAVSSQMIGKKLFTKQTGEKGRICNQVLVCERKYPRREYYFAITMERSFQGPVLIGSSHGGVNIEDVAAESPEAIIKEPIDIEEGIKKEQALQLAQKMGFPPNIVESAAENMVKLYSLFLKYDATMIEINPMVEDSDGAVLCMDAKINFDSNSAYRQKKIFDLQDWTQEDERDKDAAKANLNYIGLDGNIGCLVNGAGLAMATMDIIKLHGGTPANFLDVGGGATVHQVTEAFKLITSDKKVLAILVNIFGGIMRCDVIAQGIVMAVKDLEIKIPVVVRLQGTRVDDAKALIADSGLKILACDDLDEAARMVVKLSEIVTLAKQAHVDVKFQLPI [G118R] | disrupting interaction strength

Variants of: B2
Details: with tnni1_human TNNI1, P19237

Variant | effect of a mutation on the interaction
MSAETPITLNIDPQDLQVQTFTVEKLLEPLIIQVTTLVNCPQNPSSRKKGRSKRASVLLASVEEATWNLLDKGEKIAQEATVLKDELTASLEEDRKESEALKVSAERFTDDPCFLPKREAVVQAARALLAAVTRLLILADMIDVMCLLQHVSAFQRTFESLKNVANKSDLQKTYQKLGKELENLDYLAFKRQQDLKSPNQRDEIAGARASLKENSPLLHSICSACLEHSDVASLKASKDTVCEEIQNALNVISNASQGIQNMTTPPEPQAATLGSALDELENLIVLNPLTVTEEEIRPSLEKRLEAIISGAALLADSSCTRDLHRERIIAECNAIRQALQDLLSEYMNNAGKKERSNTLNIALDNMCKKTRDLRRQLRKAIIDHVSDSFLDTTVPLLVLIEAAKNGREKEIKEYAAIFHEHTSRLVEVANLACSMSTNEDGIKIVKIAANHLETLCPQIINAALALAARPKSQAVKNTMEMYKRTWENHIHVLTEAVDDITSIDDFLAVSGMFLFF [V94D] | with no effect
